Measurements from IntAct's records for PubMed 22035699.

B1: 5-hydroxytryptamine receptor 1A (Homo sapiens), P08908 (parent)
chain: MDVLSPGQGNNTTSPPAPFETGGNTTGISDVTVSYQVITSLLLGTLIFCAVLGNACVVAAIALERSLQNVANYLIGSLAVTDLMVSVLVLPMAALYQVLNKWTLGQVTCDLFIALDVLCCTSSILHLCAIALDRYWAITDPIDYVNKRTPRRAAALISLTWLIGFLISIPPMLGWRTPEDRSDPDACTISKDHGYTIYSTFGAFYIPLLLMLVLYGRIFRAARFRIRKTVKKVEKTGADTRHGASPAPQPKKSVNGESGSRNWRLGVESKAGGALCANGAVRQGDDGAALEVIEVHRVGNSKEHLPLPSEAGPTPCAPASFERKNERNAEAKRKMALARERKTVKTLGIIMGTFILCWLPFFIVALVLPFCESSCHMPTLLGAIINWLGYSNSLLNPVIYAYFNKDFQNAFKKIIKCKFCRQ

Variants of: B1
Conditions: with fgfr1_human FGFR1, P11362
Chain of fgfr1_human FGFR1, P11362 (P11362 whole entry, looked up): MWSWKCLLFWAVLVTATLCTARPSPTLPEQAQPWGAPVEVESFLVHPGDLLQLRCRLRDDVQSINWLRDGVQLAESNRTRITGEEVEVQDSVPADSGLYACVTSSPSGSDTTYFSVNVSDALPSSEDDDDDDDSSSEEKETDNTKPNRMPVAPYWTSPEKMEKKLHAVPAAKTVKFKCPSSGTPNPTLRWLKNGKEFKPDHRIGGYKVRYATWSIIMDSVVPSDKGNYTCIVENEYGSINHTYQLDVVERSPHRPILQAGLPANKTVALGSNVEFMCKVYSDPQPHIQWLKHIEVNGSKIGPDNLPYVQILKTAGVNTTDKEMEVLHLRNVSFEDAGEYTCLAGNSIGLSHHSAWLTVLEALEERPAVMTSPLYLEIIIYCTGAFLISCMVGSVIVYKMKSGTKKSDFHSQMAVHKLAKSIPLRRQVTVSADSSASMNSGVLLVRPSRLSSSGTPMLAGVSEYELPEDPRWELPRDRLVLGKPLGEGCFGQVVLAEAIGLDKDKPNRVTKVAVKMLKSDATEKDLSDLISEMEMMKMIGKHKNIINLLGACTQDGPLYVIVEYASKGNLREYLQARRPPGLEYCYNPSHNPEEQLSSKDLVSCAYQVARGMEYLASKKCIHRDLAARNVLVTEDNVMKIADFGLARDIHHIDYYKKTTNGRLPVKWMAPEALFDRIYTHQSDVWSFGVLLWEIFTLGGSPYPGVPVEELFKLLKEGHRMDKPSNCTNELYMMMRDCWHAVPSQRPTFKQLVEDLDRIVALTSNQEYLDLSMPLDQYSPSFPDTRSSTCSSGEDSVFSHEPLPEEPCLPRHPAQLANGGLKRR

Variant	effect of a mutation on the interaction
D406A;F407A;Q408A;N409A;F411A;K412A;K413A;I414A;I415A;K416A	decreasing interaction
